Assay results published in the RNAGym collection of RNA variant scans (doi:10.1021/acssynbio.7b00057).

B1: Pistol ribozyme (parent)
chain: GGGUCGUUGUUCCAUAAUCGCGUGGAUAUGGCACGCAAGUUUCUACCGGGCACCGUAAAUGUCCGACUGGAGCCGUUCGGGCGGCUAUAAACAGACCUCAGGCCCGAAGCGUGGCGGCACCUGCCGCCGGUGGUAAAAAAGAUCGGAAGAGCACACGUCU

Variants of: B1
Experiment: aptazyme ON/OFF ratio, guanine; higher = stronger switching; co-transcriptional cleavage with and without guanine

Variant | aptazyme ON/OFF ratio
GGGUCGGACAUCCAUAAUCGCGUGGAUAUGGCACGCAAGUUUCUACCGGGCACCGUAAAUGUCCGACUGGAGCCGUUCGGGCGGCUAUAAACAGACCUCAGGCCCGAAGCGUGGCGGCACCUGCCGCCGGUGGUAAAAAAGAUCGGAAGAGCACACGUCU [U7G U8A G9C U10A] | 1.07
GGGUCGGACAUAUAUAAUCGCGUGGAUAUGGCACGCAAGUUUCUACCGGGCACCGUAAAUGUCCGACUGGAGCCGUUCGGGCGGCUAUAAACAGACCUCAGGCCCGAAGCGUGGCGGCACCUGCCGCCGGUGGUAAAAAAGAUCGGAAGAGCACACGUCU [U7G U8A G9C U10A C12A C13U] | 1.06
GGGUCGGACAUAAAUAAUCGCGUGGAUAUGGCACGCAAGUUUCUACCGGGCACCGUAAAUGUCCGACUGGAGCCGUUCGGGCGGCUAUAAACAGACCUCAGGCCCGAAGCGUGGCGGCACCUGCCGCCGGUGGUAAAAAAGAUCGGAAGAGCACACGUCU [U7G U8A G9C U10A C12A C13A] | 1.05
GGGUCGGACAUAGAUAAUCGCGUGGAUAUGGCACGCAAGUUUCUACCGGGCACCGUAAAUGUCCGACUGGAGCCGUUCGGGCGGCUAUAAACAGACCUCAGGCCCGAAGCGUGGCGGCACCUGCCGCCGGUGGUAAAAAAGAUCGGAAGAGCACACGUCU [U7G U8A G9C U10A C12A C13G] | 1.01
GGGUCGGACAACAAUAAUCGCGUGGAUAUGGCACGCAAGUUUCUACCGGGCACCGUAAAUGUCCGACUGGAGCCGUUCGGGCGGCUAUAAACAGACCUCAGGCCCGAAGCGUGGCGGCACCUGCCGCCGGUGGUAAAAAAGAUCGGAAGAGCACACGUCU [U7G U8A G9C U10A U11A C13A] | 1.05
GGGUCGGACAACUAUAAUCGCGUGGAUAUGGCACGCAAGUUUCUACCGGGCACCGUAAAUGUCCGACUGGAGCCGUUCGGGCGGCUAUAAACAGACCUCAGGCCCGAAGCGUGGCGGCACCUGCCGCCGGUGGUAAAAAAGAUCGGAAGAGCACACGUCU [U7G U8A G9C U10A U11A C13U] | 1.04
GGGUCGGACAACGAUAAUCGCGUGGAUAUGGCACGCAAGUUUCUACCGGGCACCGUAAAUGUCCGACUGGAGCCGUUCGGGCGGCUAUAAACAGACCUCAGGCCCGAAGCGUGGCGGCACCUGCCGCCGGUGGUAAAAAAGAUCGGAAGAGCACACGUCU [U7G U8A G9C U10A U11A C13G] | 1.04
GGGUCGGACAACCAUAAUCGCGUGGAUAUGGCACGCAAGUUUCUACCGGGCACCGUAAAUGUCCGACUGGAGCCGUUCGGGCGGCUAUAAACAGACCUCAGGCCCGAAGCGUGGCGGCACCUGCCGCCGGUGGUAAAAAAGAUCGGAAGAGCACACGUCU [U7G U8A G9C U10A U11A] | 1.09
GGGUCGGACACCCAUAAUCGCGUGGAUAUGGCACGCAAGUUUCUACCGGGCACCGUAAAUGUCCGACUGGAGCCGUUCGGGCGGCUAUAAACAGACCUCAGGCCCGAAGCGUGGCGGCACCUGCCGCCGGUGGUAAAAAAGAUCGGAAGAGCACACGUCU [U7G U8A G9C U10A U11C] | 1.06
GGGUCGGACAAUUAUAAUCGCGUGGAUAUGGCACGCAAGUUUCUACCGGGCACCGUAAAUGUCCGACUGGAGCCGUUCGGGCGGCUAUAAACAGACCUCAGGCCCGAAGCGUGGCGGCACCUGCCGCCGGUGGUAAAAAAGAUCGGAAGAGCACACGUCU [U7G U8A G9C U10A U11A C12U C13U] | 1.05
GGGUCGGACAAUAAUAAUCGCGUGGAUAUGGCACGCAAGUUUCUACCGGGCACCGUAAAUGUCCGACUGGAGCCGUUCGGGCGGCUAUAAACAGACCUCAGGCCCGAAGCGUGGCGGCACCUGCCGCCGGUGGUAAAAAAGAUCGGAAGAGCACACGUCU [U7G U8A G9C U10A U11A C12U C13A] | 1.04
GGGUCGGACAAUGAUAAUCGCGUGGAUAUGGCACGCAAGUUUCUACCGGGCACCGUAAAUGUCCGACUGGAGCCGUUCGGGCGGCUAUAAACAGACCUCAGGCCCGAAGCGUGGCGGCACCUGCCGCCGGUGGUAAAAAAGAUCGGAAGAGCACACGUCU [U7G U8A G9C U10A U11A C12U C13G] | 1.05
GGGUCGGACAUUUAUAAUCGCGUGGAUAUGGCACGCAAGUUUCUACCGGGCACCGUAAAUGUCCGACUGGAGCCGUUCGGGCGGCUAUAAACAGACCUCAGGCCCGAAGCGUGGCGGCACCUGCCGCCGGUGGUAAAAAAGAUCGGAAGAGCACACGUCU [U7G U8A G9C U10A C12U C13U] | 1.05
GGGUCGGACAUUGAUAAUCGCGUGGAUAUGGCACGCAAGUUUCUACCGGGCACCGUAAAUGUCCGACUGGAGCCGUUCGGGCGGCUAUAAACAGACCUCAGGCCCGAAGCGUGGCGGCACCUGCCGCCGGUGGUAAAAAAGAUCGGAAGAGCACACGUCU [U7G U8A G9C U10A C12U C13G] | 0.956
GGGUCGGACAUUAAUAAUCGCGUGGAUAUGGCACGCAAGUUUCUACCGGGCACCGUAAAUGUCCGACUGGAGCCGUUCGGGCGGCUAUAAACAGACCUCAGGCCCGAAGCGUGGCGGCACCUGCCGCCGGUGGUAAAAAAGAUCGGAAGAGCACACGUCU [U7G U8A G9C U10A C12U C13A] | 1.03
GGGUCGGACAAAGAUAAUCGCGUGGAUAUGGCACGCAAGUUUCUACCGGGCACCGUAAAUGUCCGACUGGAGCCGUUCGGGCGGCUAUAAACAGACCUCAGGCCCGAAGCGUGGCGGCACCUGCCGCCGGUGGUAAAAAAGAUCGGAAGAGCACACGUCU [U7G U8A G9C U10A U11A C12A C13G] | 1.03
GGGUCGGACAAAAAUAAUCGCGUGGAUAUGGCACGCAAGUUUCUACCGGGCACCGUAAAUGUCCGACUGGAGCCGUUCGGGCGGCUAUAAACAGACCUCAGGCCCGAAGCGUGGCGGCACCUGCCGCCGGUGGUAAAAAAGAUCGGAAGAGCACACGUCU [U7G U8A G9C U10A U11A C12A C13A] | 1.04
GGGUCGGACAAAUAUAAUCGCGUGGAUAUGGCACGCAAGUUUCUACCGGGCACCGUAAAUGUCCGACUGGAGCCGUUCGGGCGGCUAUAAACAGACCUCAGGCCCGAAGCGUGGCGGCACCUGCCGCCGGUGGUAAAAAAGAUCGGAAGAGCACACGUCU [U7G U8A G9C U10A U11A C12A C13U] | 1.02

Variant | aptazyme ON/OFF ratio
GGGUCGGACAUGGAUAAUCGCGUGGAUAUGGCACGCAAGUUUCUACCGGGCACCGUAAAUGUCCGACUGGAGCCGUUCGGGCGGCUAUAAACAGACCUCAGGCCCGAAGCGUGGCGGCACCUGCCGCCGGUGGUAAAAAAGAUCGGAAGAGCACACGUCU [U7G U8A G9C U10A C12G C13G] | 1.06
GGGUCGGACAUGUAUAAUCGCGUGGAUAUGGCACGCAAGUUUCUACCGGGCACCGUAAAUGUCCGACUGGAGCCGUUCGGGCGGCUAUAAACAGACCUCAGGCCCGAAGCGUGGCGGCACCUGCCGCCGGUGGUAAAAAAGAUCGGAAGAGCACACGUCU [U7G U8A G9C U10A C12G C13U] | 1.03
GGGUCGGACAUGAAUAAUCGCGUGGAUAUGGCACGCAAGUUUCUACCGGGCACCGUAAAUGUCCGACUGGAGCCGUUCGGGCGGCUAUAAACAGACCUCAGGCCCGAAGCGUGGCGGCACCUGCCGCCGGUGGUAAAAAAGAUCGGAAGAGCACACGUCU [U7G U8A G9C U10A C12G C13A] | 1.04
GGGUCGGACAUCAAUAAUCGCGUGGAUAUGGCACGCAAGUUUCUACCGGGCACCGUAAAUGUCCGACUGGAGCCGUUCGGGCGGCUAUAAACAGACCUCAGGCCCGAAGCGUGGCGGCACCUGCCGCCGGUGGUAAAAAAGAUCGGAAGAGCACACGUCU [U7G U8A G9C U10A C13A] | 1.03
GGGUCGGACAUCGAUAAUCGCGUGGAUAUGGCACGCAAGUUUCUACCGGGCACCGUAAAUGUCCGACUGGAGCCGUUCGGGCGGCUAUAAACAGACCUCAGGCCCGAAGCGUGGCGGCACCUGCCGCCGGUGGUAAAAAAGAUCGGAAGAGCACACGUCU [U7G U8A G9C U10A C13G] | 1.01
GGGUCGGACAUCUAUAAUCGCGUGGAUAUGGCACGCAAGUUUCUACCGGGCACCGUAAAUGUCCGACUGGAGCCGUUCGGGCGGCUAUAAACAGACCUCAGGCCCGAAGCGUGGCGGCACCUGCCGCCGGUGGUAAAAAAGAUCGGAAGAGCACACGUCU [U7G U8A G9C U10A C13U] | 1.02
GGGUCGGACAAGUAUAAUCGCGUGGAUAUGGCACGCAAGUUUCUACCGGGCACCGUAAAUGUCCGACUGGAGCCGUUCGGGCGGCUAUAAACAGACCUCAGGCCCGAAGCGUGGCGGCACCUGCCGCCGGUGGUAAAAAAGAUCGGAAGAGCACACGUCU [U7G U8A G9C U10A U11A C12G C13U] | 1.02
GGGUCGGACAAGAAUAAUCGCGUGGAUAUGGCACGCAAGUUUCUACCGGGCACCGUAAAUGUCCGACUGGAGCCGUUCGGGCGGCUAUAAACAGACCUCAGGCCCGAAGCGUGGCGGCACCUGCCGCCGGUGGUAAAAAAGAUCGGAAGAGCACACGUCU [U7G U8A G9C U10A U11A C12G C13A] | 1.04
GGGUCGGACAAGGAUAAUCGCGUGGAUAUGGCACGCAAGUUUCUACCGGGCACCGUAAAUGUCCGACUGGAGCCGUUCGGGCGGCUAUAAACAGACCUCAGGCCCGAAGCGUGGCGGCACCUGCCGCCGGUGGUAAAAAAGAUCGGAAGAGCACACGUCU [U7G U8A G9C U10A U11A C12G C13G] | 1.01
GGGUCGGACACACAUAAUCGCGUGGAUAUGGCACGCAAGUUUCUACCGGGCACCGUAAAUGUCCGACUGGAGCCGUUCGGGCGGCUAUAAACAGACCUCAGGCCCGAAGCGUGGCGGCACCUGCCGCCGGUGGUAAAAAAGAUCGGAAGAGCACACGUCU [U7G U8A G9C U10A U11C C12A] | 1.05
GGGUCGGACUUCUAUAAUCGCGUGGAUAUGGCACGCAAGUUUCUACCGGGCACCGUAAAUGUCCGACUGGAGCCGUUCGGGCGGCUAUAAACAGACCUCAGGCCCGAAGCGUGGCGGCACCUGCCGCCGGUGGUAAAAAAGAUCGGAAGAGCACACGUCU [U7G U8A G9C C13U] | 1.04
GGGUCGGACAAACAUAAUCGCGUGGAUAUGGCACGCAAGUUUCUACCGGGCACCGUAAAUGUCCGACUGGAGCCGUUCGGGCGGCUAUAAACAGACCUCAGGCCCGAAGCGUGGCGGCACCUGCCGCCGGUGGUAAAAAAGAUCGGAAGAGCACACGUCU [U7G U8A G9C U10A U11A C12A] | 1.03
GGGUCGGACAAUCAUAAUCGCGUGGAUAUGGCACGCAAGUUUCUACCGGGCACCGUAAAUGUCCGACUGGAGCCGUUCGGGCGGCUAUAAACAGACCUCAGGCCCGAAGCGUGGCGGCACCUGCCGCCGGUGGUAAAAAAGAUCGGAAGAGCACACGUCU [U7G U8A G9C U10A U11A C12U] | 1.03
GGGUCGGACAAGCAUAAUCGCGUGGAUAUGGCACGCAAGUUUCUACCGGGCACCGUAAAUGUCCGACUGGAGCCGUUCGGGCGGCUAUAAACAGACCUCAGGCCCGAAGCGUGGCGGCACCUGCCGCCGGUGGUAAAAAAGAUCGGAAGAGCACACGUCU [U7G U8A G9C U10A U11A C12G] | 1.03
GGGUCGGACACAAAUAAUCGCGUGGAUAUGGCACGCAAGUUUCUACCGGGCACCGUAAAUGUCCGACUGGAGCCGUUCGGGCGGCUAUAAACAGACCUCAGGCCCGAAGCGUGGCGGCACCUGCCGCCGGUGGUAAAAAAGAUCGGAAGAGCACACGUCU [U7G U8A G9C U10A U11C C12A C13A] | 1.04
GGGUCGGACAUACAUAAUCGCGUGGAUAUGGCACGCAAGUUUCUACCGGGCACCGUAAAUGUCCGACUGGAGCCGUUCGGGCGGCUAUAAACAGACCUCAGGCCCGAAGCGUGGCGGCACCUGCCGCCGGUGGUAAAAAAGAUCGGAAGAGCACACGUCU [U7G U8A G9C U10A C12A] | 1.03
GGGUCGGACAUUCAUAAUCGCGUGGAUAUGGCACGCAAGUUUCUACCGGGCACCGUAAAUGUCCGACUGGAGCCGUUCGGGCGGCUAUAAACAGACCUCAGGCCCGAAGCGUGGCGGCACCUGCCGCCGGUGGUAAAAAAGAUCGGAAGAGCACACGUCU [U7G U8A G9C U10A C12U] | 1.03
GGGUCGGACAUGCAUAAUCGCGUGGAUAUGGCACGCAAGUUUCUACCGGGCACCGUAAAUGUCCGACUGGAGCCGUUCGGGCGGCUAUAAACAGACCUCAGGCCCGAAGCGUGGCGGCACCUGCCGCCGGUGGUAAAAAAGAUCGGAAGAGCACACGUCU [U7G U8A G9C U10A C12G] | 1.01
